From publication PMC12646661 (The Journal of Clinical Investigation, 2025) come the findings set out here.

In this assay the target is T1, rN2 (A/Hong Kong/1/1968), soluble recombinant neuraminidase (influenza A virus A/Hong Kong/1/1968 …).
T1 chain: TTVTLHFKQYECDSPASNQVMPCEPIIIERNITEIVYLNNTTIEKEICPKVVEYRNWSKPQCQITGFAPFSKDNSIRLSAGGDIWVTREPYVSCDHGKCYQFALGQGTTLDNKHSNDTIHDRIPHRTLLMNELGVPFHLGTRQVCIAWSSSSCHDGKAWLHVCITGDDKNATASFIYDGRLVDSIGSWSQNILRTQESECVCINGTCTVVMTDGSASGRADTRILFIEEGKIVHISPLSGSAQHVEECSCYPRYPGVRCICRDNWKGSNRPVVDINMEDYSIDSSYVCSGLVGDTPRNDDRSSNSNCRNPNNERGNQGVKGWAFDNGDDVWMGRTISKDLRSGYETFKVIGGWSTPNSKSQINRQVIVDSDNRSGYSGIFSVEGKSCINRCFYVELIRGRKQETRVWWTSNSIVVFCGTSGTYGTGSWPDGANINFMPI
As to the kind of experiment: ELISA. The settings on record: both partners purified.

B1: rFNI9 (recombinant version of the broadly neutralizing NA antibody FNI9) (antibody, V domains shown)
VH: QVHLVQSGAEVKEPGSSVTVSCKASGGSFNNQAISWVRQAPGQGLEWMGGIFPISGTPTSAQRFQGRVTFTADESTTTVYMDLSSLRSDDTAVYYCARAGSDYFNRDLGWENYYFASWGQGTLVTVSS
VL: EIVMTQSPATLSLSSGERATLSCRASRSVSSNLAWYQQKPGQAPRLLIYDASTRATGFSARFAGSGSGTEFTLTISSLQSEDSAIYYCQQYNNWPPWTFGQGTKVEIK
On to B1, for which the binding result is listed as “binds”.

B2: r1G01 (recombinant version of the previously described mAb 1G01) (antibody, V domains shown)
VH: EVQLVESGGRALRPGGSLRLSCAASGFKFDDYAMSWVRQVPGKGLEFVSGLNWNGDITAYTDSVKGRFTVSRDNAKNSLYLHINSPKPEDTALYYCARTSSWGDYTRGPEPKITWYFDLWGRGTLVTVSS
VL: DIQLTQSPSFLSASVGDRITITCRASQGIDGYLAWYQQRPGKAPNLLIYAASLLQSGVPSRFSGSGYGTEFTLTISSLQPEDFATYYCQHLDSYPLFTFGPGTKVDIK
Consider B2, for which the binding result is on record as “binds”.
